Article doi:10.1101/2020.10.20.346569 (bioRxiv, 2020)
Like-named read-outs stand apart in the source and are kept apart here.

B1: His-eIF4E2 (natural protein, UniProt O60573 1-245, looked up)
chain: MNNKFDALKDDDSGDHDQNEENSTQKDGEKEKTERDKNQSSSKRKAVVPGPAEHPLQYNYTFWYSRRTPGRPTSSQSYEQNIKQIGTFASVEQFWRFYSHMVRPGDLTGHSDFHLFKEGIKPMWEDDANKNGGKWIIRLRKGLASRCWENLILAMLGEQFMVGEEICGAVVSVRFQEDIISIWNKTASDQATTARIRDTLRRVLNLPPNTIMEYKTHTDSIKMPGRLGPQRLLFQNLWKPRLNVP
B2: peptide e2-I (peptide)
peptide: RLLFQNLWKPRL

Assays:
[1] = biological target: T1, GST-GSK3β (UniProt P49841 1-420); assay: pull-down
[2] = biological target: T1, GST-GSK3β; assay: pull-down; remark: listed apart in the source

T1 sequence (P49841 whole entry): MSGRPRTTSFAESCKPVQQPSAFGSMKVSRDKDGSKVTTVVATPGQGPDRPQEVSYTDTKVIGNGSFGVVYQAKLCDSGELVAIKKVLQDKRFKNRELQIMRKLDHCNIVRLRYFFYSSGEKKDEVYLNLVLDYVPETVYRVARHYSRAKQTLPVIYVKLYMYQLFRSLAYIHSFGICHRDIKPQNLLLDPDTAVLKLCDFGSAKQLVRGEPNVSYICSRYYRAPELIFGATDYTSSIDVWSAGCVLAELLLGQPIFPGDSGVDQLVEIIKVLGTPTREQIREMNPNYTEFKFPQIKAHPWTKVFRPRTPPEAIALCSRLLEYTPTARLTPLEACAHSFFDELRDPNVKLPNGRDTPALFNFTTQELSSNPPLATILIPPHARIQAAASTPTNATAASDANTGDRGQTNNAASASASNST

Row | Binder | binding result [1] | binding result [2]
1 | B1 | binds | 
2 | B2 |  | binds
